Results: patent US20130295090A1 (US Dept. of Health and Human Services, published 2013)
Like-named read-outs stand apart in the source and are kept apart here.

Legend:
[1] = target: T1, JEV strain SA14-14-2 envelope (E) protein on virions (Japanese encephalitis virus strain …, UniProt P0DOH7 295-794); assay: cell-based or functional assay
[2] = target: T1, JEV strain SA14-14-2 envelope (E) …; assay: cell-based or functional assay; remark: listed apart in the source
[3] = target: E protein of wild type JEV strain JE 1991 (genotype I) (Japanese encephalitis virus strain JE …); assay: cell-based or functional assay
[4] = target: E protein of wild type JEV strain JE B1034/8 (genotype II) (Japanese encephalitis virus strain JE …); assay: cell-based or functional assay
[5] = target: E protein of wild type JEV strain Beijing (genotype III) (Japanese encephalitis virus strain …); assay: cell-based or functional assay
[6] = target: E protein of wild type JEV strain JKT 9092 (genotype IV) (Japanese encephalitis virus strain JKT …); assay: cell-based or functional assay
[7] = target: T1, JEV strain SA14-14-2 envelope (E) …; assay: cell-based or functional assay; remark: listed apart in the source
[8] = target: T1, JEV strain SA14-14-2 envelope (E) …
[9] = target: T1, JEV strain SA14-14-2 envelope (E) …; assay: cell-based or functional assay; remark: listed apart in the source
[10] = target: T2, recombinant JEV N-terminal 80% E protein (Japanese encephalitis virus strain …, UniProt P0DOH7 295-692); assay: SPR, recombinant E immobilized
[11] = target: T1, JEV strain SA14-14-2 envelope (E) …; assay: ELISA on JEV virions, half maximum binding (FIG. 4A)
[12] = target: T1, JEV strain SA14-14-2 envelope (E) …; assay: ELISA, virion-coated plate; initial Fab ~100 µg/ml
[13] = target: T1, JEV strain SA14-14-2 envelope (E) …; assay: ELISA on JEV SA14-14-2 virions captured with HMAF
[14] = target: T2, recombinant JEV N-terminal 80% E protein; assay: SPR (Biacore 3000), recombinant E immobilized, Fab in solution
[15] = target: T1, JEV strain SA14-14-2 envelope (E) …; assay: ELISA on JEV virions captured with HMAF, half-maximal binding, Fab
[16] = target: T1, JEV strain SA14-14-2 envelope (E) …; remark: listed apart in the source
[17] = target: T1, JEV strain SA14-14-2 envelope (E) …; assay: ELISA on JEV virions captured with HMAF, half-maximal binding, MAb
[18] = target: T1, JEV strain SA14-14-2 envelope (E) …; remark: listed apart in the source

B1: humanized MAb B2 (antibody, V domains shown)
VH: VQLLEQSGSEVKKPGASVKVSCKASGYPFTDYAMSWVRQAPGQGLEYMGWIFTNSGNPTYAPGFAGRFVFSLDISVNTAYLHIDSLKPEDTAVYYCARGIVTPAASGDYFDSWGQGTLVTVSS
VL: ELVLTQSPSSLSASIGDRVTITCRASQHISSWLAWYQQKPGKAPKPLIYAASSLKSGVPSRFSGSGSGTDFTLTISGLQPEDFATYYCQQYENSPVTFGGGTKVEIKR
B1 was tested, and the “occupancy of accessible antibody sites on the virion for neutralization” value (“occupancy of accessible antibody sites” below) [1] was roughly 28%, the “PRNT50 titer” value [2] was 0.03 nM and the “PRNT50 titer” value [3] was 0.02 nM. For the same binder, the “PRNT50 titer” value [4] was 0.02 nM, the “PRNT50 titer” value [5] was 0.02 nM and the “PRNT50 titer” value [6] was 2 nM. The “PRNT50” value [7] was 0.005 µg/mL.

B2: Fab B2 (Fab, V domains shown)
VH: B1 VH
VL: B1 VL
B2 was tested, and the “IC50 (read off the curve)” value [8] was roughly 5 nM, the “PRNT50 titer” value [9] was 0.25 nM and the “fold faster off-rate than Fab A3 or E3” value [10] was no less than 120 fold. The “fold weaker Kd than Fab A3 or E3” value [10] was no less than 150 fold, the EC50 [11] was 0.28 nM and the “ELISA titer (1/log10 dilution)” value [12] was 4.2 log10 reciprocal dilution. For the same binder, the “EC50 (read off the curve)” value [13] was roughly 0.2 nM, the Kd [14] was 110 nM and the koff [14] was 0.0046 s⁻¹. The kon [14] was 42000 M⁻¹ s⁻¹ and the Kd [15] was 0.28 nM.

B3: Fab E3 (Fab, V domains shown)
VH: EVQLLESGPGLVRPSQTLSLTCAVSGASISGPLSYWTWIRQSPGKKMEHIGSMFYSGNTYYNPSLKGRITMSVDTSRNQFSLNLNSVTVADTAVYFCARRRETELFGLPIDYWGQGILVTVSS
VL: ELTQSPATLSVSPGERATLSCRASERISSSYLSWYQQKPGQAPRLLMYGTSTRATGIPARFSGSGSGTDFTLTISSLQPEDFAVYFCQQDYNLPWTFGQGTKLEIKR
B3 was tested, and the “IC50 (read off the curve)” value [16] was roughly 7 nM, the “PRNT50 titer” value [9] was 84.9 nM and the EC50 [11] was 0.98 nM. The “ELISA titer (1/log10 dilution)” value [12] was 4.2 log10 reciprocal dilution, the “EC50 (read off the curve)” value [13] was roughly 1 nM and the Kd [14] was 0.35 nM. The koff [14] was 3.6e-05 s⁻¹, the kon [14] was 100000 M⁻¹ s⁻¹ and the Kd [15] was 0.98 nM.

B4: humanized MAb E3 (antibody, V domains shown)
VH: B3 VH
VL: B3 VL
With B4 the “occupancy of accessible antibody sites” value [1] was 66%, the “PRNT50 titer” value [2] was 0.93 nM and the “PRNT50 titer” value [3] was 0.21 nM. The “PRNT50 titer” value [4] was 0.14 nM, the “PRNT50 titer” value [5] was 0.71 nM and the “PRNT50 titer” value [6] was 0.36 nM. For the same binder, the “PRNT50” value [7] was 0.09 µg/mL and the Kd [17] was 0.31 nM.

B5: Fab A3 (Fab, V domains shown)
VH: EVQLLESGAEVKKPGSSVRISCKVSGTPYSSYVMNWVRQAPGQGLEWMGVFVPSLDRALYAQNFQGRLSITADTTTTYMELTSLKFEDTAVYYCATDFSVGWLRPLDRWGQGTLVTVSS
VL: ELQMTQSPSSLSASVGDRVTITCRASQGISNYLAWYQQKPGKAPKLLIYYASRLESGVPSRFSGSGSGTDYTLTISSLQPEDFATYYCQQYNSNPFTFGPGTKVDIKR
In the case of B5, the “IC50 (read off the curve)” value [18] is reported as roughly 6 nM, the “PRNT50 titer” value [9] is reported as 2.55 nM and the EC50 [11] is reported as 0.45 nM. The “ELISA titer (1/log10 dilution)” value [12] was 4.7 log10 reciprocal dilution, the “EC50 (read off the curve)” value [13] was roughly 0.5 nM and the Kd [14] was 0.72 nM. For the same binder, the koff [14] was 2.8e-05 s⁻¹, the kon [14] was 40000 M⁻¹ s⁻¹ and the Kd [15] was 0.45 nM.

B6: humanized MAb A3 (antibody, V domains shown)
VH: B5 VH
VL: B5 VL
For B6, the “occupancy of accessible antibody sites” value [1] was 45%, the “PRNT50 titer” value [2] was 0.2 nM and the “PRNT50 titer” value [3] was 0.04 nM. For the same binder, the “PRNT50 titer” value [4] was 0.04 nM, the “PRNT50 titer” value [5] was 0.2 nM and the “PRNT50 titer” value [6] was 0.07 nM. The “PRNT50” value [7] was 0.04 µg/mL.
